Legend:
[1] = Synthesis of N-caprinoylamino acid using purified acylamino acid synthetase, UPLC-MS detection; format: biochemical; design: key: +: Detected; −: Not detected; conditions: +ATP
Experimental: 2.0 mL of a reaction solution containing 50 mM Tris-HCl, 5 mM amino acid, 5 mM sodium caprate, 10 mM ATP, 10 mM MgCl2, 1 mM DTT, 50 μg of the purified enzyme, pH 8.0 was incubated at 25° C. for 24 hours. After completion of the reaction, 0.8 mL of a reaction stop solution (1% (v/v) phosphoric acid, 75% (v/v) methanol) was added, and the mixture was filtrated through a filter followed by being subjected to the UPLC-MS analysis to detect a signal of a molecular weight corresponding to an N-caprinoyl amino acid.
A UPLC-MS analysis condition is as follows.
Apparatus: ACQUITY UPLC (Waters)
• Column: ACQUITY UPLC BEH C18 1.7 2.1×100 mm Column (Waters) • Mobile phase A: 0.1% formic acid • Mobile phase B: acetonitrile Gradient
• Flow rate: 0.6 mL/min • Injection amount: 2 μL • Column temperature: 40° C. • Ionization method: ESI-negative
As a result of the UPLC-MS analysis, the signal of the molecular weight corresponding to the N-caprinoyl amino acid was confirmed in the reaction solution combining the enzyme and the amino acid shown in Table 3 below.

[2] = Synthesis of N-caprinoyl-amino acid derivative, N-caprinoyl-D-amino acid and N-caprinoyl-peptide using purified acylamino acid synthetase, UPLC-MS detection; format: biochemical; design: key: +: Detected; −: Not detected; conditions: +ATP
Experimental: 0.2 mL of a reaction solution containing 50 mM Tris-HCl, 5 mM amino acid derivative or D-amino acid or peptide, 5 mM sodium caprate, 10 mM ATP, 10 mM MgCl2, 1 mM DTT, 50 μg/mL of the purified enzyme, pH 8.0 was incubated at 25° C. for 24 hours. After completion of the reaction, 0.8 mL of the reaction stop solution (1% (v/v) phosphoric acid, 75% (v/v) methanol) was added, and the mixture was filtrated through the filter followed by being subjected to the UPLC-MS analysis to detect a signal of a molecular weight corresponding to an N-caprinoyl-amino acid derivative, an N-caprinoyl-amino acid or an N-caprinoyl-peptide. A condition for the UPLC-MS analysis is as described in Example 2.
As a result of the UPLC-MS analysis, the signal of the molecular weight corresponding to the N-caprinoyl-amino acid derivative, or N-caprinoyl-amino acid, or N-caprinoyl-peptide was confirmed in the reaction solution containing the enzyme in combination with the amino acid derivative or the D-amino acid or the peptide shown in Table 4 below.

B1: PsIAAL: indoleacetate-lysine synthetase from Pseudomonas savastanoi (PaaK protein), His-tagged (protein, listed as Pseudomonas savastanoi)
chain: MTAYDMEKEWSRISITAAKIHQNNDFEGFTYQDFRTHVPIMDKDGFAAQTERCLERNERNCLIGFTSGTSGNIKRCYYYYDCEVDEDSSLSNVFRSNGFILPGDRCANLFTINLFSALNNTITMMAGNCGAHVVSVGDITLVTKSHFEALNSIKLNVLLGVPSTILQFINAMQHNGVHINIEKVVFTGESLKTFQKKIIRQAFGEQVSIVGVYGSSEGGILGFTNSPCHTEYEFLSDKYFIEKEGDSILITSLTRENFTPLLRYRLGDTATLSMKGDKLYLTDIQREDMSFNFMGNLIGLGIIQQTIKQTLGRSLEIQVHLSVTEERKELVTVFVQASEVDEDERVRIETAIADIPDIKEAYQKNQGTVSVLRKDARDYAVSERGKMLYIIDRRN
modifications: His-tag
notes: indoleacetate-lysine synthetase from Pseudomonas savastanoi (PaaK protein), His-tagged
+: signal of molecular weight corresponding to N-caprinoyl amino acid ([1]; substrates GABA and sodium caprate) | signal of molecular weight corresponding to N-caprinoyl amino acid ([1]; substrates Gly and sodium caprate) | signal of molecular weight corresponding to N-caprinoyl amino acid ([1]; substrates L-Ala and sodium caprate) | signal of molecular weight corresponding to N-caprinoyl amino acid ([1]; substrates L-Arg and sodium caprate) | signal of molecular weight corresponding to N-caprinoyl amino acid ([1]; substrates L-Asn and sodium caprate) | signal of molecular weight corresponding to N-caprinoyl amino acid ([1]; substrates L-Asp and sodium caprate) | signal of molecular weight corresponding to N-caprinoyl amino acid ([1]; substrates L-Cys and sodium caprate) | signal of molecular weight corresponding to N-caprinoyl amino acid ([1]; substrates L-Gln and sodium caprate) | signal of molecular weight corresponding to N-caprinoyl amino acid ([1]; substrates L-Glu and sodium caprate) | signal of molecular weight corresponding to N-caprinoyl amino acid ([1]; substrates L-His and sodium caprate) | signal of molecular weight corresponding to N-caprinoyl amino acid ([1]; substrates L-Ile and sodium caprate) | signal of molecular weight corresponding to N-caprinoyl amino acid ([1]; substrates L-Leu and sodium caprate) | signal of molecular weight corresponding to N-caprinoyl amino acid ([1]; substrates L-Lys and sodium caprate) | signal of molecular weight corresponding to N-caprinoyl amino acid ([1]; substrates L-Met and sodium caprate) | signal of molecular weight corresponding to N-caprinoyl amino acid ([1]; substrates L-Phe and sodium caprate) | signal of molecular weight corresponding to N-caprinoyl amino acid ([1]; substrates L-Pro and sodium caprate) | signal of molecular weight corresponding to N-caprinoyl amino acid ([1]; substrates L-Ser and sodium caprate) | signal of molecular weight corresponding to N-caprinoyl amino acid ([1]; substrates L-Thr and sodium caprate) | signal of molecular weight corresponding to N-caprinoyl amino acid ([1]; substrates L-Trp and sodium caprate) | signal of molecular weight corresponding to N-caprinoyl amino acid ([1]; substrates L-Tyr and sodium caprate) | signal of molecular weight corresponding to N-caprinoyl amino acid ([1]; substrates L-Val and sodium caprate) | signal of molecular weight corresponding to N-caprinoyl amino acid ([1]; substrates β-Ala and sodium caprate) | signal of molecular weight corresponding to N-caprinoyl compound ([2]; substrates Carnosine and sodium caprate) | signal of molecular weight corresponding to N-caprinoyl compound ([2]; substrates D-Ala and sodium caprate) | signal of molecular weight corresponding to N-caprinoyl compound ([2]; substrates D-Asp and sodium caprate) | signal of molecular weight corresponding to N-caprinoyl compound ([2]; substrates D-Cys and sodium caprate) | signal of molecular weight corresponding to N-caprinoyl compound ([2]; substrates D-Glu and sodium caprate) | signal of molecular weight corresponding to N-caprinoyl compound ([2]; substrates D-Ile and sodium caprate) | signal of molecular weight corresponding to N-caprinoyl compound ([2]; substrates D-Lys and sodium caprate) | signal of molecular weight corresponding to N-caprinoyl compound ([2]; substrates L-Asp-L-Phe and sodium caprate) | signal of molecular weight corresponding to N-caprinoyl compound ([2]; substrates L-Gly-L-Gly and sodium caprate) | signal of molecular weight corresponding to N-caprinoyl compound ([2]; substrates Sarcosine and sodium caprate) | signal of molecular weight corresponding to N-caprinoyl compound ([2]; substrates Taurine and sodium caprate)
